In this data set the test system is T1, CC(=O)N[C@H]1[C@H](Oc2ccc([N+](=O)[O-])cc2)O[C@H](CO)[C@@H](O[C@@H]2O[C@H](CO)[C@@H](O[C@@H]3O[C@H](CO)[C@@H](O)[C@H](O)[C@H]3NC(C)=O)[C@H](O)[C@H]2NC(C)=O)[C@@H]1O.
T1 construct: synthetic gene, codon-optimised, pPICZαA (EcoRI/KpnI), secreted from Pichia pastoris KM71H, purified by Q-Sepharose
Kind of data set: purified protein. Conditions: 50 mM citrate/phosphate pH 5.0, 25 °C, 0.1–6 mM substrate. The data set is classed as biochemical, Talaromyces flavus.

Chain of TfChit (Talaromyces flavus) (chain, as listed by the source): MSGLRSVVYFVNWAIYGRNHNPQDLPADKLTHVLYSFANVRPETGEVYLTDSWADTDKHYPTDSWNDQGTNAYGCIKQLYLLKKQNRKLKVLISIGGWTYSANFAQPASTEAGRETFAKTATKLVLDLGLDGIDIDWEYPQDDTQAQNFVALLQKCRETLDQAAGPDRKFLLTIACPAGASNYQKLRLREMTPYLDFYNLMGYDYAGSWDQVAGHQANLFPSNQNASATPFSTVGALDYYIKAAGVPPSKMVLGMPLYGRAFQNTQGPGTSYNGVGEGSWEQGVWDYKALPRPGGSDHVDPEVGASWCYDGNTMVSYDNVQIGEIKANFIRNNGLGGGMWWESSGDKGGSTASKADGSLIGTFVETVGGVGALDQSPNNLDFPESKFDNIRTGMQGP
Chain of TfChit (Talaromyces flavus; D136V/S181W) (chain, as listed by the source D136V S181W): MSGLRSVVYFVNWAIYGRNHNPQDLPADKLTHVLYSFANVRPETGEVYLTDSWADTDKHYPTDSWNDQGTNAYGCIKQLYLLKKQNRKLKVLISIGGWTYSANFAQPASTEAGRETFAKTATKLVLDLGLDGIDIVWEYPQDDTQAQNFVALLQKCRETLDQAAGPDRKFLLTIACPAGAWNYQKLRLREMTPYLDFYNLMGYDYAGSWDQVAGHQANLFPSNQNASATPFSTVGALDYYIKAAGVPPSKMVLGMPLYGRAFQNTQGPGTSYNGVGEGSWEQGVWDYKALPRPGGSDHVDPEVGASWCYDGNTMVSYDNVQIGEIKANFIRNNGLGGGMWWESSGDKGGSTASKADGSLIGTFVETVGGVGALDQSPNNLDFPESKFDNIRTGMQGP
Chain of TfChit (Talaromyces flavus; S181W) (chain, as listed by the source S181W): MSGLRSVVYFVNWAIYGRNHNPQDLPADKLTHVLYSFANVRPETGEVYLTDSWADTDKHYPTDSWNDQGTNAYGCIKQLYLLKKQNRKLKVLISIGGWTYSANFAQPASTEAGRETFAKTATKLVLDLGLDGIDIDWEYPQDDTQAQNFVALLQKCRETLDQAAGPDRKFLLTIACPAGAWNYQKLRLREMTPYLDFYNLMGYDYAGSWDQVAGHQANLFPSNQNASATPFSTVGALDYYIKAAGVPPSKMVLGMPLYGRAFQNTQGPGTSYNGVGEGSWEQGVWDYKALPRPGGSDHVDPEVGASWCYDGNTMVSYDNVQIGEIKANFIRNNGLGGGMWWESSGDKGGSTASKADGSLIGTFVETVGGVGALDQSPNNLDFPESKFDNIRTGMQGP
Chain of TfChit (Talaromyces flavus; D136V/S181W/W209A) (chain, as listed by the source D136V S181W W209A): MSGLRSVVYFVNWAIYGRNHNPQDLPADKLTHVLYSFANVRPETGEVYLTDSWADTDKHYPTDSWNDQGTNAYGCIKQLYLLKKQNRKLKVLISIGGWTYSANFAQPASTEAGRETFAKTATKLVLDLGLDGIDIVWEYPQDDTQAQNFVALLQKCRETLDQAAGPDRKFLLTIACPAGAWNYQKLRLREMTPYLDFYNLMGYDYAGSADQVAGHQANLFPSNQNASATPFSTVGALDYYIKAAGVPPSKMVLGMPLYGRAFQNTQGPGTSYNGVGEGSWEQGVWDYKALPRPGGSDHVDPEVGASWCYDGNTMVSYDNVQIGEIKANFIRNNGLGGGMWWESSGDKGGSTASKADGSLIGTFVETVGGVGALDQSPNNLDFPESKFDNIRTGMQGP
Chain of TfChit (Talaromyces flavus; D136V) (chain, as listed by the source D136V): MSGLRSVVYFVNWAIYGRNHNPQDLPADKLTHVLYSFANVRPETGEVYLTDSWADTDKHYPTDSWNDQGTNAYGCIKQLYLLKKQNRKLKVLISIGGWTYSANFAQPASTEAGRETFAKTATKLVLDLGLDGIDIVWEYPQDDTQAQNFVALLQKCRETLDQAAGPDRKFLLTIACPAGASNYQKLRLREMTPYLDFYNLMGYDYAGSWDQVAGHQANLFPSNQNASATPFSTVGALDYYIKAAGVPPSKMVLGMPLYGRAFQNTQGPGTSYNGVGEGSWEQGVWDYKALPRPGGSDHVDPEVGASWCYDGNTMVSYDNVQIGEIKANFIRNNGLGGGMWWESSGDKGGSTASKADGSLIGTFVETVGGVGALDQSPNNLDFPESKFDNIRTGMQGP
Chain of TfChit (Talaromyces flavus; W209A) (chain, as listed by the source W209A): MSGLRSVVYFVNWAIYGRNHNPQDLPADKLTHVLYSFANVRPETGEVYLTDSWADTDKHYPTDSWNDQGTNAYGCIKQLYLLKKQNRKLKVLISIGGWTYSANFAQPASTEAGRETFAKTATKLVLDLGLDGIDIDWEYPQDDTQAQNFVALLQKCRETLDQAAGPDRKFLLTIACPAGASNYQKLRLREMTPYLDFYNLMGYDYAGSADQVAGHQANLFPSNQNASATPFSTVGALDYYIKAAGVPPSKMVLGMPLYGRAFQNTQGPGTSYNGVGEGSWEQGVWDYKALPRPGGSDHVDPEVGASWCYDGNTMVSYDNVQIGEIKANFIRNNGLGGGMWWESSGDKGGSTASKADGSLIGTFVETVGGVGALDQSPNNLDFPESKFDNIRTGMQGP
Chain of TfChit (Talaromyces flavus; F231W) (chain, as listed by the source F231W): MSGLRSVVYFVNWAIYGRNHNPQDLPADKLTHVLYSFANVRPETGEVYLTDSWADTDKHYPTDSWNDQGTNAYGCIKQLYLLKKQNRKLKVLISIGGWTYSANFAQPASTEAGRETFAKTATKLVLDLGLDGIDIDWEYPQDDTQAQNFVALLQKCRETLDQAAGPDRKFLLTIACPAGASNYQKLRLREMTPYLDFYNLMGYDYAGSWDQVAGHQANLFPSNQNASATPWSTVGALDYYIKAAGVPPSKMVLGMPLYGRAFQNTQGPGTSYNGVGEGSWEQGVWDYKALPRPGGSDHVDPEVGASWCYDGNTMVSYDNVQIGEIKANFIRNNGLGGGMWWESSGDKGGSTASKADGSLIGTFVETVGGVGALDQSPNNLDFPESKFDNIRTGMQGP
Chain of TfChit (Talaromyces flavus; S181W/W209A) (chain, as listed by the source S181W W209A): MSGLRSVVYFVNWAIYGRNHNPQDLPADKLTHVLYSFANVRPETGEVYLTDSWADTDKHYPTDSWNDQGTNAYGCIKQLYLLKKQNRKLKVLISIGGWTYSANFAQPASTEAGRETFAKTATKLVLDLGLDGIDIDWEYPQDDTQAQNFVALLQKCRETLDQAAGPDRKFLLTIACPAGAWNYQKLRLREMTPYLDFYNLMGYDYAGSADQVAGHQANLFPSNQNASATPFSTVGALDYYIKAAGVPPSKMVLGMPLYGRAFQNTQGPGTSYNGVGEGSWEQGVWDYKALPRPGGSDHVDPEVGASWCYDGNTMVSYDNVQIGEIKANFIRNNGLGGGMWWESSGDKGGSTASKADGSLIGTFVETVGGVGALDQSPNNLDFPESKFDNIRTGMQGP
Chain of TfChit (Talaromyces flavus; F231W/W209A) (chain, as listed by the source F231W W209A): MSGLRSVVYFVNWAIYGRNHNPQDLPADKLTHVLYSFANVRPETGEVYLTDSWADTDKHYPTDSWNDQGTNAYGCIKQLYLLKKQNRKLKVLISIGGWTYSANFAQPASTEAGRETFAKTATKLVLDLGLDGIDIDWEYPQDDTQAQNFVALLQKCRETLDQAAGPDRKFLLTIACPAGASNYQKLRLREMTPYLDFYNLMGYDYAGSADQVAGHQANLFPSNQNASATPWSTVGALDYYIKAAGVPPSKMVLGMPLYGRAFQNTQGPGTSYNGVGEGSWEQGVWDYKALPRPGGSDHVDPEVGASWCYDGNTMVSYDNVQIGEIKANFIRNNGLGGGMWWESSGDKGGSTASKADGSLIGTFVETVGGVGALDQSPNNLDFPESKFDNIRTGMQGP
Chain of TfChit (Talaromyces flavus; D136V/W209A) (chain, as listed by the source D136V W209A): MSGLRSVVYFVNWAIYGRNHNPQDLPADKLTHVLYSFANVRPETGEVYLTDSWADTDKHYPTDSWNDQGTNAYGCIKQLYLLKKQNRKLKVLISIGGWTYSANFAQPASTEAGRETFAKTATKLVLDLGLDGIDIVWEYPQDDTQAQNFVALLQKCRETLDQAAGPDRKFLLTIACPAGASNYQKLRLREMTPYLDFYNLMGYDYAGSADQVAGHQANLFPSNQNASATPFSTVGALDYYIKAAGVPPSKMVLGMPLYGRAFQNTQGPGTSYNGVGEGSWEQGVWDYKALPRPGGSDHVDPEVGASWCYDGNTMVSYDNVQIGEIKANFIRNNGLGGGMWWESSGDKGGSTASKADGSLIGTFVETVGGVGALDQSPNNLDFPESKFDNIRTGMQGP

Take “TfChit (Talaromyces flavus; D136V/S181W/W209A)”: the Km is 2.0 mmol·L^–1, the catalytic constant (kcat) was 5.6 s⁻¹ and the catalytic efficiency (kcat/Km) was 2800 M⁻¹ s⁻¹.

As for “TfChit (Talaromyces flavus; S181W/W209A)”, the Km was 2.6 mmol·L^–1, the turnover number (kcat) amounted to 3.1 s⁻¹ and the catalytic efficiency (kcat/Km) turned out to be 1200 M⁻¹ s⁻¹.

Consider TfChit (Talaromyces flavus; D136V), for which the Km is on record as 1.1 mmol·L^–1, the kcat came to 5.3 s⁻¹ and the catalytic efficiency (kcat/Km) turned out to be 5000 M⁻¹ s⁻¹.

With TfChit (Talaromyces flavus; F231W), the Km is listed as 1.1 mmol·L^–1, the kcat was found to be 1.9 s⁻¹ and the kcat/Km amounted to 1800 M⁻¹ s⁻¹.

In the case of “TfChit (Talaromyces flavus; D136V/S181W)”, the Km turned out to be 4.3 mmol·L^–1, the kcat came out at 5.3 s⁻¹ and the catalytic efficiency (kcat/Km) stood at 1200 M⁻¹ s⁻¹.

With “TfChit (Talaromyces flavus; F231W/W209A)”, the Km is given as 1.3 mmol·L^–1, the kcat came to 4.7 s⁻¹ and the kcat/Km was determined as 3500 M⁻¹ s⁻¹.

As for TfChit (Talaromyces flavus), the Km worked out at 1.2 mmol·L^–1, the kcat was found to be 3.9 s⁻¹ and the kcat/Km came out at 3300 M⁻¹ s⁻¹.

Consider “TfChit (Talaromyces flavus; D136V/W209A)”, for which the Km came out at 3.6 mmol·L^–1, the kcat worked out at 8.2 s⁻¹ and the kcat/Km turned out to be 2200 M⁻¹ s⁻¹.

For the substance TfChit (Talaromyces flavus; W209A), the Km amounted to 3.3 mmol·L^–1, the turnover number (kcat) was 6.1 s⁻¹ and the kcat/Km was found to be 1900 M⁻¹ s⁻¹.

For TfChit (Talaromyces flavus; S181W), the Km is reported as 1.5 mmol·L^–1, the kcat was found to be 6 s⁻¹ and the catalytic efficiency (kcat/Km) stood at 4000 M⁻¹ s⁻¹.

(Values after publication PMC11261597, “Three-Step Enzymatic Remodeling of Chitin into Bioactive Chitooligomers” (Journal of Agricultural and Food Chemistry, 2024).)
